The values that follow come from patent US11571485B2, “Peptides and antibodies for detecting changes in alzheimer's disease brain and methods of use thereof” (Sanford Burnham Prebys Medical Discovery Institute, priority 2016, dated 2023).

One test deals with T1, recombinant human CTGF (Homo sapiens, UniProt P29279).
T1 construct: purchased Affymetrix 14-8503-80
T1 sequence (P29279 253-349 limits assumed): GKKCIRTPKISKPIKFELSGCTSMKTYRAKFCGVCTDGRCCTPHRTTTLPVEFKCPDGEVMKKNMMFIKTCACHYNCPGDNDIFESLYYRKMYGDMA
Kind of test: ELISA binding to recombinant CTGF. As to the method: FIG. 10 is a graphical representation relating to identification of a receptor for DAG. DAG binds to recombinant CTGF. FAM-DAG was incubated on ELISA plate coated with recombinant human CTGF at two different peptide concentrations of the FAM peptide alone (light gray bars), or in the presence of non-labeled DAG (0.5 mM) (dark gray bars). […] DAG was also shown to colocalize with CTGF. FAM-DAG was intravenously injected in 9-month-old hAPP-J20 and WT mice, allowed to circulate for 30 minutes, after which mice were perfused, and the brains were fixed, sectioned and stained for FAM (green) and CTGF (red).
Human CTGF recombinant protein (Affymetrix Cat #14-8503-80) was incubated on Nunc low-binding plates at concentration of 10 μg/ml for overnight at 4° C. Excess protein in the plates was removed by washing with PBS-T (PBS with 0.005% Tween 20). Plates were blocked with 200 μl of 3% non-fat milk in PBS for 1 hour at room temperature and washed with PBS-T once. Biotin-labeled peptide (at different concentrations) in PBS was added to the plate for 2 hours at 37° C. For peptide inhibition, non-labeled DAG peptide (0.5 mM) was added 30 minutes prior to addition of labeled peptide. The plates were washed with 100 μl PBS-T for three times to remove excess peptide. The bound peptide was detected by incubating with 100 μl of Vectastain ABC™ reagent (Vector labs, Burlingame, Calif.) for 30 minutes. The plate was washed with 100 μl PBS-T three times. Next, 100 μl of o-phenylenediamine dihydrochloride (OPD) silver and gold substrate (Sigma-Aldrich) was added to the wells and incubated at room temperature until visible color was observed (˜30 min). Adding 50 μl of 1 M H2SO4 stopped the reaction and the plate was read at 495 nm (FlexStation™ 3 Reader, Molecular Devices, Sunnyvale, Calif., USA).

A further test has as its system Tg2576 mouse brain. Description: In vivo homing of FAM-DAG in Tg2576 mice. As to the method:
All animal experiments were conducted under an approved protocol of the Institutional Animal Care and Use Committee of Sanford Burnham Prebys Medical Discovery Institute. The following transgenic mouse models were used for peptide homing studies—hAPP-J20 ([…], Nature genetics 1, 345-347 (1992)), Tg2576 (Jacobsen et al., Proc Natl Acad Sci USA 103, 5161-5166 (2006)), and mTHY-1-α-synuclein model (Chesselet et al., Neurotherapeutics 9, 297-314 (2012)). The P13 glioblastoma model is a patient-derived orthotopic xenograft model (Bougnaud et al., Oncotarget, (2016)). Spheroids were cultured as described previously (Bjerkvig et al., J Neurosurg 72, 463-475 (1990)). After two weeks in culture, spheroids (volume 2.5 μl) were stereotactically implanted into the brains of nude mice. Mice were used approximately 6 weeks after tumors were induced, when mice started presenting neurological symptoms. The acute brain injury model was setup as previously described (Mann et al., Nature communications 7, 11980 (2016)). Briefly, 8 to 10 week-old male BL6 mice were anaesthetized with 4% isoflurane in 70% N2O and 30% O2, and a 5-mm craniotomy was performed using a portable drill and a trephine over the right parietotemporal cortex using a stereotactic frame. […]

Regarding CDAGRKQKC, the “Binding to CTGF-coated plates” value with recombinant human CTGF (ELISA) is recorded as “bound to CTGF-coated plates in a dose-dependent manner”. In the test with recombinant human CTGF (non-labeled DAG 0.5 mM), the “Inhibition of CTGF binding by unlabeled DAG” value is given as “inhibited in the presence of an excess of unlabeled DAG”. Besides, the “Colocalization in Tg2576 brain sections” value in the test with Tg2576 mouse brain (DAG-injected Tg2576 mice, immunostaining) was “significant colocalization of DAG with Aβ and CD31”. In the test with Tg2576 mouse brain (i.v. FAM-DAG), the “Homing in Tg2576 model” value was “detected both in the hippocampus and in the cortex”.
